This note sets out measurements from the supplement of paper PMC10567573.

B1: CDKL4 (parent)
chain: AVKKFVESEDDPVVKKIALREIRM
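Also: lentivirally expressed fusions sorted by FACS into six bins by GFP to DsRed ratio, PSI derived from sequencing read proportions per bin multiplied by bin number.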

The series covers variants of B1. Briefly: protein stability index of a GFP-peptide fusion (GPS, HEK-293T) (PSI 1-6); higher = more stable. To be noted: c terminus: a fixed tail appended.
As to AVKKFVESEDDPVVKKIALGEIRM [R20G], the protein stability index amounted to 3.03.

For AVKKFVESEDDPVVKKIALVEIRM [R20V], the protein stability index is 1.46. Take AVKKFVESEDDPVVKKIALFEIRM [R20F]: the protein stability index is 1.5. Under AVKKFVESEDDPVVKKIALHEIRM [R20H] stands 2.63; under AVKKFVESEDDPVVKKIALLEIRM [R20L], 2.44. Consider AVKKFVESEDDPVVKKIALQEIRM [R20Q], for which the protein stability index amounted to 3.49. Under AVKKFVESEDDPVVKKIALSEIRM [R20S] stands 3.19; under AVKWFVESEDDPVVKKIALREIRM [K4W], 2.43. Turning to AVKIFVESEDDPVVKKIALREIRM [K4I], the protein stability index turned out to be 1.88. For the variant AVKCFVESEDDPVVKKIALREIRM [K4C], the protein stability index was determined as 2.6. For AVKFFVESEDDPVVKKIALREIRM [K4F], the protein stability index is 2.13. Regarding AVKHFVESEDDPVVKKIALREIRM [K4H], the protein stability index worked out at 2.88. On to AVKEFVESEDDPVVKKIALREIRM [K4E], for which the protein stability index turned out to be 3.55.

For the variant AVKSFVESEDDPVVKKIALREIRM [K4S], the protein stability index amounted to 3.15. On to AVKYFVESEDDPVVKKIALREIRM [K4Y], for which the protein stability index was found to be 2.25. Regarding AVKDFVESEDDPVVKKIALREIRM [K4D], the protein stability index came to 4.07. Take AVKKFVESYDDPVVKKIALREIRM [E9Y]: the protein stability index is 1.74.

Consider AVKKFVESGDDPVVKKIALREIRM [E9G], for which the protein stability index came to 2.43. Turning to AVKKFVESPDDPVVKKIALREIRM [E9P], the protein stability index worked out at 2.34. Under AVKKFVESTDDPVVKKIALREIRM [E9T] stands 3.02; under AVKKFVESKDDPVVKKIALREIRM [E9K], 2.69; under AVKKFVESFDDPVVKKIALREIRM [E9F], 2.09. In the case of AVKKFVESCDDPVVKKIALREIRM [E9C] it was 2.23. Take AVKKFVESRDDPVVKKIALREIRM [E9R]: the protein stability index was 2.51. Under AVKKFVESNDDPVVKKIALREIRM [E9N] stands 2.56; under AVKKFVESEDDPHVKKIALREIRM [V13H], 3.11; under AVKKFVESEDDPYVKKIALREIRM [V13Y], 2.3. As for AVKKFVESEDDPRVKKIALREIRM [V13R], the protein stability index came out at 3.08. With AVKKFVESEDDPEVKKIALREIRM [V13E], the protein stability index came to 3.35. Regarding AVKKFVESEDDPMVKKIALREIRM [V13M], the protein stability index stood at 2.73. As for AVKKFVESEDDPSVKKIALREIRM [V13S], the protein stability index came to 3.48.

Take AVKKFVESEDDPTVKKIALREIRM [V13T]: the protein stability index was 3.77. Turning to AVKKFVESEDDPAVKKIALREIRM [V13A], the protein stability index was found to be 3.23. As for AVKKFVESEDDPWVKKIALREIRM [V13W], the protein stability index is 2.49. Under AVKKFVESEDDPCVKKIALREIRM [V13C] stands 2.67; under AVKKIVESEDDPVVKKIALREIRM [F5I], 2.94; under AVKKPVESEDDPVVKKIALREIRM [F5P], 4.07. Take AVKKYVESEDDPVVKKIALREIRM [F5Y]: the protein stability index is 3.46. In the case of AVKKLVESEDDPVVKKIALREIRM [F5L], the protein stability index is 2.98.

As to AVKKWVESEDDPVVKKIALREIRM [F5W], the protein stability index was 2.47.

For AVKKGVESEDDPVVKKIALREIRM [F5G], the protein stability index is 4.28. As for AVKKMVESEDDPVVKKIALREIRM [F5M], the protein stability index amounted to 3.33. As to AVKKFTESEDDPVVKKIALREIRM [V6T], the protein stability index is 3.16. For the variant AVKKFFESEDDPVVKKIALREIRM [V6F], the protein stability index is 2.1. In the case of AVKKFGESEDDPVVKKIALREIRM [V6G] it was 3.33; in that of AVKKFPESEDDPVVKKIALREIRM [V6P], 3.78; in that of AVKKFLESEDDPVVKKIALREIRM [V6L], 3.23.

AVKKFQESEDDPVVKKIALREIRM [V6Q]: the protein stability index was 3.42.

In the case of AVKKFCESEDDPVVKKIALREIRM [V6C], the protein stability index turned out to be 2.82.

Regarding AVKKFSESEDDPVVKKIALREIRM [V6S], the protein stability index stood at 3.17. Regarding AVKKFNESEDDPVVKKIALREIRM [V6N], the protein stability index came to 3.6.

Regarding AVKKFWESEDDPVVKKIALREIRM [V6W], the protein stability index amounted to 2.57. In the case of AVKKFDESEDDPVVKKIALREIRM [V6D] it was 3.65; in that of AVCKFVESEDDPVVKKIALREIRM [K3C], 2.66; in that of AVTKFVESEDDPVVKKIALREIRM [K3T], 2.86.

For AVQKFVESEDDPVVKKIALREIRM [K3Q], the protein stability index worked out at 3.04. For AVWKFVESEDDPVVKKIALREIRM [K3W], the protein stability index worked out at 2.35. In the case of AVSKFVESEDDPVVKKIALREIRM [K3S], the protein stability index came to 3.23. In the case of AVKKFVESEWDPVVKKIALREIRM [D10W] it was 2.16. For the variant AVKKFVESENDPVVKKIALREIRM [D10N], the protein stability index was 2.91. As to AVKKFVESEIDPVVKKIALREIRM [D10I], the protein stability index is 1.81.

For the variant AVKKFVESEMDPVVKKIALREIRM [D10M], the protein stability index came out at 2.65. With AVKKFVESELDPVVKKIALREIRM [D10L], the protein stability index worked out at 1.68. AVKKFVESEEDPVVKKIALREIRM [D10E]: the protein stability index worked out at 2.99. On to AVKKFVESEADPVVKKIALREIRM [D10A], for which the protein stability index was 2.58.

As for AVKKFVESEDDPVVLKIALREIRM [K15L], the protein stability index was 1.95. Under AVKKFVESEDDPVVGKIALREIRM [K15G] stands 2.82; under AVKKFVESEDDPVVFKIALREIRM [K15F], 2.58. Consider AVKKFVESEDDPVVIKIALREIRM [K15I], for which the protein stability index amounted to 2.4. For AVKKFVESEDDPVVSKIALREIRM [K15S], the protein stability index came out at 2.59. Under AVKKFVESEDDPVVQKIALREIRM [K15Q] stands 2.86. For the variant AVKKFVESEDDPVVCKIALREIRM [K15C], the protein stability index is 2.52.

With AVKKFVESEDDPVVKKIDLREIRM [A18D], the protein stability index was 3.84. With AVKKFVESEDDPVVKKIVLREIRM [A18V], the protein stability index worked out at 2.6. In the case of AVKKFVESEDDPVVKKIWLREIRM [A18W] it was 2.43; in that of AVKKFVESEDDPVVKKIELREIRM [A18E], 3.37; in that of AVKKFVESEDDPVVKKIILREIRM [A18I], 2.21.

Consider AVKKFVESEDDPVVKKIQLREIRM [A18Q], for which the protein stability index was determined as 3.79. In the case of AVKKFVESEDDPVVKKIFLREIRM [A18F] it was 1.76; in that of AVKKFVESEDDPVVKKIRLREIRM [A18R], 2.76; in that of AVKKFVESEDDPVVKKIGLREIRM [A18G], 3.65.

As for AVKKFVHSEDDPVVKKIALREIRM [E7H], the protein stability index turned out to be 2.18. With AVKKFVTSEDDPVVKKIALREIRM [E7T], the protein stability index was 2.52. In the case of AVKKFVWSEDDPVVKKIALREIRM [E7W], the protein stability index is 2.14. In the case of AVKKFVISEDDPVVKKIALREIRM [E7I] it was 2; in that of AVKKFVDSEDDPVVKKIALREIRM [E7D], 2.71. Take AVKKFVKSEDDPVVKKIALREIRM [E7K]: the protein stability index stood at 2.61. Take AVKKFVLSEDDPVVKKIALREIRM [E7L]: the protein stability index is 1.97. Regarding AVKKFVYSEDDPVVKKIALREIRM [E7Y], the protein stability index amounted to 2.32. AVKKFVEAEDDPVVKKIALREIRM [S8A]: the protein stability index is 2.92. AVKKFVEYEDDPVVKKIALREIRM [S8Y]: the protein stability index worked out at 3.17. Regarding AVKKFVECEDDPVVKKIALREIRM [S8C], the protein stability index worked out at 2.54.

For the variant AVKKFVEDEDDPVVKKIALREIRM [S8D], the protein stability index came to 3.12. Consider AVKKFVEQEDDPVVKKIALREIRM [S8Q], for which the protein stability index is 3.27.
